In the supplement of paper PMC7125110:
± gives the standard error. This sample holds only a part of the variants without activity.

B1: glmS ribozyme (parent)
chain: AUAAAAGCGCCAGAACUACAGAAAUGUAGUUGACGAGGAGGAGGUUUAUCGAAUUUUCGGCGGAUGCCUCCAAA

What was measured:
Conditions in all cases: with glucosamine-6-phosphate
glucosamine-6-phosphate [1] = variants of: B1; experiment: self-cleavage kobs at 40 uM GlcN6P; higher = faster cleavage; RNA array
Outline: (§1)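 In situ transcription by E. coli RNA polymerase produced barcoded ribozyme variants on sequenced MiSeq chips, and a hybridised Cy3 probe tracked them at 37 °C. Glucosamine-6-phosphate was flowed in at 40 μM to 10 mM in HEPES/KCl/Mg(OAc)2 buffer. kcat and KM were taken from weighted Michaelis–Menten fits of kobs values from exponential decay fits.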

glucosamine-6-phosphate [2] = variants of: B1; experiment: self-cleavage kobs at 640 uM GlcN6P; higher = faster cleavage; RNA array
Outline: as §1

glucosamine-6-phosphate [3] = variants of: B1; experiment: self-cleavage kobs at 2500 uM GlcN6P; higher = faster cleavage; RNA array
Outline: as §1

glucosamine-6-phosphate [4] = variants of: B1; experiment: self-cleavage kobs at 160 uM GlcN6P; higher = faster cleavage; RNA array
Outline: as §1

glucosamine-6-phosphate [5] = variants of: B1; experiment: self-cleavage kobs at 10000 uM GlcN6P; higher = faster cleavage; RNA array
Outline: as §1

Variant | self-cleavage kobs at 40 uM GlcN6P (glucosamine-6-phosphate [1]) | self-cleavage kobs at 640 uM GlcN6P (glucosamine-6-phosphate [2]) | self-cleavage kobs at 2500 uM GlcN6P (glucosamine-6-phosphate [3]) | self-cleavage kobs at 160 uM GlcN6P (glucosamine-6-phosphate [4]) | self-cleavage kobs at 10000 uM GlcN6P (glucosamine-6-phosphate [5])
G29C G60U C61A | < 1e-05 s⁻¹ | < 1e-05 s⁻¹ |  |  | 
C11G A14G G63U C70A | 9.38e-05 ± 2.9e-05 s⁻¹ |  | 0.000123 ± 5.4e-05 s⁻¹ |  | 
A36G A39U A48U C70G | < 1e-05 s⁻¹ | < 1e-05 s⁻¹ | < 1e-05 s⁻¹ | < 1e-05 s⁻¹ | < 1e-05 s⁻¹
G7A A15C C50U C70A | 0.000237 ± 4.9e-05 s⁻¹ |  |  |  | 
A12G A36C | < 1e-05 s⁻¹ | < 1e-05 s⁻¹ | < 1e-05 s⁻¹ | < 1e-05 s⁻¹ | 
G35C U56G | < 1e-05 s⁻¹ | < 1e-05 s⁻¹ | < 1e-05 s⁻¹ | < 1e-05 s⁻¹ | < 1e-05 s⁻¹
U49A G51A U57A C58G | < 1e-05 s⁻¹ |  |  |  | < 1e-05 s⁻¹
G60A G66A | < 1e-05 s⁻¹ |  |  | < 1e-05 s⁻¹ | 
C10U G32U A64C | < 1e-05 s⁻¹ |  |  |  | < 1e-05 s⁻¹
C8A G35C C67A | < 1e-05 s⁻¹ | < 1e-05 s⁻¹ |  | < 1e-05 s⁻¹ | 
A6C C16G C71A | < 1e-05 s⁻¹ |  |  |  | 
C34G U54A | < 1e-05 s⁻¹ | < 1e-05 s⁻¹ | < 1e-05 s⁻¹ | < 1e-05 s⁻¹ | < 1e-05 s⁻¹
C16A G37U G38A U45A U55G | < 1e-05 s⁻¹ |  |  |  | < 1e-05 s⁻¹
A12G C16G A53U C71A | < 1e-05 s⁻¹ |  |  |  | 
C16G C34A | < 1e-05 s⁻¹ | < 1e-05 s⁻¹ |  |  | < 1e-05 s⁻¹
A6U U30C U56C | < 1e-05 s⁻¹ |  |  |  | 
G40U C68A | < 1e-05 s⁻¹ | < 1e-05 s⁻¹ | < 1e-05 s⁻¹ | < 1e-05 s⁻¹ | < 1e-05 s⁻¹
A6G U56C | < 1e-05 s⁻¹ | < 1e-05 s⁻¹ |  | < 1e-05 s⁻¹ | < 1e-05 s⁻¹
C11G G38C | < 1e-05 s⁻¹ | < 1e-05 s⁻¹ | < 1e-05 s⁻¹ |  | 
G32C A39G G43A | < 1e-05 s⁻¹ |  |  |  | 
G43C A48U G51C G63A C71U | < 1e-05 s⁻¹ |  |  |  | < 1e-05 s⁻¹
C10U G59C | < 1e-05 s⁻¹ | < 1e-05 s⁻¹ |  | < 1e-05 s⁻¹ | < 1e-05 s⁻¹
C8G G41U | < 1e-05 s⁻¹ | < 1e-05 s⁻¹ | < 1e-05 s⁻¹ | < 1e-05 s⁻¹ | < 1e-05 s⁻¹
A15C G37C G40A G43U | < 1e-05 s⁻¹ |  |  |  | < 1e-05 s⁻¹

Variant | self-cleavage kobs at 40 uM GlcN6P (glucosamine-6-phosphate [1]) | self-cleavage kobs at 640 uM GlcN6P (glucosamine-6-phosphate [2]) | self-cleavage kobs at 2500 uM GlcN6P (glucosamine-6-phosphate [3]) | self-cleavage kobs at 160 uM GlcN6P (glucosamine-6-phosphate [4]) | self-cleavage kobs at 10000 uM GlcN6P (glucosamine-6-phosphate [5])
A12U G62C | < 1e-05 s⁻¹ | < 1e-05 s⁻¹ | < 1e-05 s⁻¹ | < 1e-05 s⁻¹ | < 1e-05 s⁻¹
G40A U69A | < 1e-05 s⁻¹ | < 1e-05 s⁻¹ | < 1e-05 s⁻¹ |  | < 1e-05 s⁻¹
G9U A39U | < 1e-05 s⁻¹ |  |  |  | 
G7C U47C A64U | < 1e-05 s⁻¹ |  |  |  | < 1e-05 s⁻¹
G35C G41U G51C | < 1e-05 s⁻¹ |  | < 1e-05 s⁻¹ |  | 
C10G G32U A53G C58G G60C | < 1e-05 s⁻¹ |  |  |  | 0.000266 ± 4.4e-05 s⁻¹
A15U G43U U54C G60C C70G | < 1e-05 s⁻¹ |  |  |  | < 1e-05 s⁻¹
G7U U46C C70G | < 1e-05 s⁻¹ |  | < 1e-05 s⁻¹ |  | < 1e-05 s⁻¹
U31A G43U | < 1e-05 s⁻¹ |  |  | < 1e-05 s⁻¹ | 
C8U C10G | < 1e-05 s⁻¹ | < 1e-05 s⁻¹ |  |  | < 1e-05 s⁻¹
A14U G62C | < 1e-05 s⁻¹ |  | < 1e-05 s⁻¹ |  | 
A6G A14G G29C G38A A39G G40A A42U U54C U56A G60C | < 1e-05 s⁻¹ |  |  |  | 
G13A C50G C68G | 7.03e-05 ± 1.5e-05 s⁻¹ |  | 0.000125 ± 2.6e-05 s⁻¹ |  | 9.04e-05 ± 1.9e-05 s⁻¹
C8U C50A G51A U69G | 0.00046 ± 0.00016 s⁻¹ |  |  |  | 0.000709 ± 0.00014 s⁻¹
A36C G41A C68A | < 1e-05 s⁻¹ | < 1e-05 s⁻¹ | < 1e-05 s⁻¹ |  | < 1e-05 s⁻¹
A6G G51C | < 1e-05 s⁻¹ | < 1e-05 s⁻¹ | < 1e-05 s⁻¹ | < 1e-05 s⁻¹ | 
C8A U31A C50G A53U C70A | 0.000306 ± 7.3e-05 s⁻¹ |  |  |  | 0.000515 ± 0.00016 s⁻¹
A48C G63U | < 1e-05 s⁻¹ | < 1e-05 s⁻¹ | < 1e-05 s⁻¹ |  | < 1e-05 s⁻¹
G37C A39G C50U | < 1e-05 s⁻¹ |  |  |  | 
G13C A39G A64U | < 1e-05 s⁻¹ |  | < 1e-05 s⁻¹ |  | 
C8U C16U U46A G63A | < 1e-05 s⁻¹ |  |  |  | < 1e-05 s⁻¹
C11U A12U C34A G66C | < 1e-05 s⁻¹ | < 1e-05 s⁻¹ | < 1e-05 s⁻¹ |  | < 1e-05 s⁻¹
U45G C50U A64G | < 1e-05 s⁻¹ | < 1e-05 s⁻¹ |  |  | 
C10U C11A A39C A42U U47C G66C | < 1e-05 s⁻¹ |  |  |  | 
